In patent US20250019737A1:

Key:
[1] = molecular target: nDHFR-linker 1-His6-Ub (pND-Ub) (mouse) (UniProt P00375)
[2] = molecular target: nDHFR-linker 1-His6-Ub (pND-Ub) (mouse) (UniProt P00375); experiment: cell-based or functional assay

Chain of vWA T173,175R (P00375 whole entry): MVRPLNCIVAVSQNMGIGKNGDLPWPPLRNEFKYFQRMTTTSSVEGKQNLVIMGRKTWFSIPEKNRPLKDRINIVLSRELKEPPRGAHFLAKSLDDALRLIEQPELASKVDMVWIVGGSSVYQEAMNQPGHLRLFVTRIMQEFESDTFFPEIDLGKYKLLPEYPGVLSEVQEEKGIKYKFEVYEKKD
Chain of vWA (P00375 whole entry): as above
Chain of vWA Q149R (P00375 whole entry, stated change not applied): as the sequence (P00375 whole entry) above
Chain of vWA Q149A (P00375 whole entry, stated change not applied): as the sequence (P00375 whole entry) above

Substance	Growth efficiency (max growth density divided by the time of half max growth); number matched to the legend entry by its order in the column and its grey tone [1]	bacterial growth on trimethoprim, split DHFR, incomplete ubiquitination cascade (ΔE1, ΔE2) [2] [µg/mL]
vWA (from UniProt P00375)	1230	
cDHFR-Vps9 (pCD-Sub) (from UniProt P00375 109-187; P54787 1-451)		0.1

Second part, the substance after the results:

Growth efficiency (max growth density divided by the time of half max growth); number matched to the legend entry by its order in the column and its grey tone [1]	bacterial growth on trimethoprim, split DHFR, incomplete ubiquitination cascade (ΔE1, ΔE2) [2] [µg/mL]	Substance
516		vWA Q149R (from UniProt P00375)
62		vWA T173,175R (from UniProt P00375)
715		vWA Q149A (from UniProt P00375)
